Results from article PMC11203719, “Mts1 (S100A4) and Its Peptide Demonstrate Cytotoxic Activity in Complex with Tag7 (PGLYRP1) Peptide” (International Journal of Molecular Sciences, 2024).

B1: Mts1 (S100A4) protein, recombinant human (natural protein)
chain: not shown
modifications: Alexa Fluor 633 label (only in the thermophoresis with Tag7, 17.1, 17.1A and 17.1B)
notes: cDNA subcloned into pQE-30; PDB 3NCF is printed for Mts1 but may be a misprint; also called metastasin 1; full-sized Mts1; source: E. coli M15 (pREP4), pQE-30, purified (HisTrap FF)
B2: peptide 17.1B of Tag7 (PGLYRP1) (peptide)
peptide: HRDVQRT
notes: source: synthetic peptide (Fmoc, HPLC purified)
B3: peptide 17.1A of Tag7 (PGLYRP1) (peptide)
peptide: RSNYVLKG
notes: as for B2

Columns and labels:
[1] = molecular target: the molecule itself; experiment: SDS-PAGE and Western blot; eluate of recombinant Mts1 from 17.1-Sepharose resolved by 12% SDS-PAGE and blotted with anti-Mts1; oligomer state read from the band
[2] = molecular target: B1; experiment: MST; Mts1 labelled with Alexa Fluor 633 (200 nM), preincubated 20 min in the dark at room temperature with 16 concentrations of Tag7 or peptide; Monolith NT.115, 10% IR laser power; apparent Kd; conditions: both partners purified

Kd [2] | Binder | stoichiometry N [1]
 | B1 | 4
7.26 nM | B2 | 
109 nM | B3 | 
